These results are taken from US20220025344A1 (Novartis, published 2022).

The target of assay [1] is T1, Recombinant human LPL (mature human lipoprotein lipase, amino acids 28-475) (human, UniProt P06858 28-475).
T1 construct: also called LPL alone; hLPL
T1 sequence: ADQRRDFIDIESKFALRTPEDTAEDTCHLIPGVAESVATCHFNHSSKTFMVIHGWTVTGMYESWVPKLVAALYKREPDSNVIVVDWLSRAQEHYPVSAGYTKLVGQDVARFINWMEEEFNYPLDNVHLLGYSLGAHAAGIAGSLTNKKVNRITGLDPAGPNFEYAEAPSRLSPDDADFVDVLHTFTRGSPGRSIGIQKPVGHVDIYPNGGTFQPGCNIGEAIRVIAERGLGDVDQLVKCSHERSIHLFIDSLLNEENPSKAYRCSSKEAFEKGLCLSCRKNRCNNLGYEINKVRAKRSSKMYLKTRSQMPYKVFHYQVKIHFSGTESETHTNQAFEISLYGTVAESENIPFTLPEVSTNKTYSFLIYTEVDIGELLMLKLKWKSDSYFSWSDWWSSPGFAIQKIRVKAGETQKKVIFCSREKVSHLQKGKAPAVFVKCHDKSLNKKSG
The assay is described as follows: crystal structure of the complex (data not shown).

Assay [2] addresses T2, His6-Human LPL(28-475) (human, UniProt P06858 28-475).
T2 construct: also called N-terminally 6-His tagged LPL
T2 sequence: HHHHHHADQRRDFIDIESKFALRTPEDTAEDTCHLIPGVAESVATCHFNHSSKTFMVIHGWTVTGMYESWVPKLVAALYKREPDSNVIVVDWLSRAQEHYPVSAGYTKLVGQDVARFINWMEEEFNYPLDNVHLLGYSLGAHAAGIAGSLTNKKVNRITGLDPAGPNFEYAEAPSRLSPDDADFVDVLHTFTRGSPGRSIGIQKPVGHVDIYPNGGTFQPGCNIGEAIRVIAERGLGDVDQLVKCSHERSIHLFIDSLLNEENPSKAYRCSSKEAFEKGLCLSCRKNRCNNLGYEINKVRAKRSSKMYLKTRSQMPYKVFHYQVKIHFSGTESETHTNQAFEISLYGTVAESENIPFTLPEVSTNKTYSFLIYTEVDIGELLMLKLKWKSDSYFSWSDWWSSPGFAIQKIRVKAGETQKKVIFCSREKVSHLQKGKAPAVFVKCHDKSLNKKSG
The assay is described as follows: Ni-affinity co-purification of untagged GPIHBP1 with N-terminally 6-His tagged LPL (SDS-PAGE), then size exclusion chromatography against MW standards. From the text:
Initially an attempt was made to purify LPL protein by itself. In order to aid this purification, a variety of LPL constructs were synthesized that were either untagged or had N- or C-terminal tags. These LPL constructs were expressed in mammalian cells and purified using heparin chromatography or Ni-affinity chromatography. […] Co-expression of the purified soluble form of GPIHBP1 with LPL protected LPL against spontaneous inactivation (data not shown). GPIHBP1 was then co-expressed with LPL in the presence of LMF1 in the following manner: N-terminally 6-His tagged LPL, untagged GPIHBP1, and LMF1 were co-transfected in a ratio of 3:1:1 into HEK293T cells. The expressed protein complex was captured using Ni-affinity chromatography. […] Importantly, the presence of GPIHBP1 and LMF1 generated an LPL/GPIHBP1 complex that was homogenous and eluted as a ˜75 KDa complex during size exclusion chromatography (FIG. 1, panel C). This agreed well with the predicted molecular weight of a 1:1 LPL/GPHBP1 complex.

B1: Human soluble GPIHBP1 (aa 21-151) (receptor)
chain: QTQQEEEEEDEDHGPDDYDEEDEDEVEEEETNRLPGGRSRVLLRCYTCKSLPRDERCNLTQNCSHGQTCTTLIAHGNTESGLLTTHSTWCTDSCQPITKTVEGTQVTMTCCQSSLCNVPPWQSSRVQDPTG
notes: also called untagged GPIHBP1; solGPIHBP1
B1: the binding result in assay [1] and in assay [2] was “binds” in each case.
